Assay results: US9664683B2, “Profiling of signal pathway proteins to determine therapeutic efficacy” (Nestec S.A., priority 2011, dated 2017)

Experiments:
[1] = test system: PI3K pathway; test: CEER-FNA pathway profiling of breast cancer tumor samples exposed to anti-cancer therapy; type: cell-based; details: breast cancer tumor samples exposed to AKT inhibitor and/or Lapatinib; FIG. 17
Excerpt: The breast cancer tumor samples were exposed to AKT inhibitor and/or Lapatinib (a tyrosine kinase inhibitor). This example illustrates that cancer cells can adapt to therapeutic pressure due to drug therapy. […] FIG. 17 illustrates CEER-FNA analysis of biomarkers in pathway profiling of breast cancer cell samples after treatment with an AKT inhibitor, Lapatinib (a tyrosine kinase inhibitor) or combination therapy.

[2] = test system: HER2 heterodimers and PI3K; test: Proximity based dimer/complex assay in MCF7 cells; type: cell-based, human; details: response to ligand, FIG. 20
Excerpt: FIG. 1A-C show one embodiment of the foregoing proximity assay for detection of dimerization of receptor tyrosine kinases. […] A first detection antibody 115 is then used to bind to a different portion (e.g., epitope) on HER2. A second detection 120 antibody is thereafter used to bind to the dimerized second receptor tyrosine 1kinase e.g., HER3 125. The first detection antibody comprises one or a plurality of first activation state-independent antibodies specific for one member of the dimer, whereas a second detection antibody or a plurality of second detection antibodies is specific for the other member of the dimer. The first detection antibody is labeled with a facilitating moiety e.g., glucose oxidase (GO) and the second detection antibody is labeled with a first member of a signal amplification pair e.g., horseradish peroxidase (HRP). The facilitating moiety generates an oxidizing agent e.g., hydrogen peroxide, which channels to and reacts with the first member of the signal amplification pair. Thereafter, the plurality of detectable captured analytes are incubated with a second member of the signal amplification pair e.g., tyramide or tyramide biotin to generate an amplified signal, which is then detected. […]

[3] = test system: PI3K complex; test: Proximity (CEER) assay detecting PI3K complexes in T47D cells; type: cell-based, human; details: T47D cells treated with heregulin (HRG), compared to non-treated cells; FIG. 4C
Excerpt: FIG. 4C illustrates the detection of activated PI3K complexes in T47D cells (human ductal breast epithelial tumor cell line) treated with heregulin (HRG), compared to non-treated cells. In some embodiments, the detection of PI3K complexes will also correlate with the detection of activated (e.g., phosphorylated) PI3K. […]

CS(=O)(=O)CCNCc1ccc(-c2ccc3ncnc(Nc4ccc(OCc5cccc(F)c5)c(Cl)c4)c3c2)o1 [Lapatinib, lapatinib]
levels of phosphorylated pathway proteins after treatment [1]: Higher levels of phosphorylated PI3K, AKT, ERK

EGF: pathway activating ligand used to stimulate MCF7 cells
activation of HER2 heterodimers and PI3K [2]: activation of HER2 heterodimers and PI3K

heregulin [HRG]
activation of HER2 heterodimers and PI3K [2]: activation of HER2 heterodimers and PI3K | detection of PI3K complexes [3]: PI3K complexes were detected
